According to the supplement of paper PMC6757056:
± gives the standard deviation of the averaged measurements.

B1: library; a variant is named by its letters at N, in order (parent)
chain: GCUGUCACCGGUGCUUGGUACGUUAUAUUCAGCCGGUCUGAUGAGUCUNNNNNNAGACGAAACAGC

How the values were obtained:
(6R,S)-folinic acid [1] = variants of: B1; assay: normalized RNA/DNA level without ligand (relative to sTRSVctl = 100) (log10 (% of sTRSVctl)); HEK293T overexpressing SLC46A1; higher = less ribozyme self-cleavage, higher mRNA level; conditions: without (6R,S)-folinic acid; ligand present: no
Procedure, shortened: (§1)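 HEK293T cells received ligand, where used, 1 h before being transfected with 4 µg per 6-well well of library plasmids encoding reporter-linked ribozyme switches. After 72 h, RNA was extracted with EDTA and sequenced. RNA level was derived from RNA reads per DNA read, normalized to a spiked-in non-cleaving sequence or the top sequences, then scaled and log-transformed. Values were ×100 then log10, the top set was 25 sequences, and the minimum was 100 DNA reads.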

(6R,S)-folinic acid [2] = variants of: B1; assay: normalized RNA/DNA level with ligand (relative to sTRSVctl = 100) (log10 (% of sTRSVctl)); HEK293T overexpressing SLC46A1; ligand concentration (+) RNA-Seq: 6 mM; higher = less ribozyme self-cleavage, higher mRNA level; conditions: with (6R,S)-folinic acid; ligand present: yes
Procedure, shortened: as §1

## GCUGUCACCGGUGCUUGGUACGUUAUAUUCAGCCGGUCUGAUGAGUCUGACCUUAGACGAAACAGC [GACCUU]
(6R,S)-folinic acid [1]
  normalized RNA/DNA level without ligand (log10): 2.079 ± 0.013
(6R,S)-folinic acid [2]
  normalized RNA/DNA level with ligand (log10): 2.04 ± 0.028

## GCUGUCACCGGUGCUUGGUACGUUAUAUUCAGCCGGUCUGAUGAGUCUGACCUGAGACGAAACAGC [GACCUG]
(6R,S)-folinic acid [1]
  normalized RNA/DNA level without ligand (log10): 2.06 ± 0.023
(6R,S)-folinic acid [2]
  normalized RNA/DNA level with ligand (log10): 2.03 ± 0.027

## GCUGUCACCGGUGCUUGGUACGUUAUAUUCAGCCGGUCUGAUGAGUCUAACGCGAGACGAAACAGC [AACGCG]
(6R,S)-folinic acid [1]
  normalized RNA/DNA level without ligand (log10): 1.909 ± 0.012
(6R,S)-folinic acid [2]
  normalized RNA/DNA level with ligand (log10): 2.03 ± 0.026

## GCUGUCACCGGUGCUUGGUACGUUAUAUUCAGCCGGUCUGAUGAGUCUAACGACAGACGAAACAGC [AACGAC]
(6R,S)-folinic acid [1]
  normalized RNA/DNA level without ligand (log10): 2.017 ± 0.013
(6R,S)-folinic acid [2]
  normalized RNA/DNA level with ligand (log10): 1.991 ± 0.019

## GCUGUCACCGGUGCUUGGUACGUUAUAUUCAGCCGGUCUGAUGAGUCUAACGAUAGACGAAACAGC [AACGAU]
(6R,S)-folinic acid [1]
  normalized RNA/DNA level without ligand (log10): 1.959 ± 0.018
(6R,S)-folinic acid [2]
  normalized RNA/DNA level with ligand (log10): 2 ± 0.035

## GCUGUCACCGGUGCUUGGUACGUUAUAUUCAGCCGGUCUGAUGAGUCUUACCUUAGACGAAACAGC [UACCUU]
(6R,S)-folinic acid [1]
  normalized RNA/DNA level without ligand (log10): 2.02 ± 0.0067
(6R,S)-folinic acid [2]
  normalized RNA/DNA level with ligand (log10): 2.046 ± 0.014

## GCUGUCACCGGUGCUUGGUACGUUAUAUUCAGCCGGUCUGAUGAGUCUCACCUUAGACGAAACAGC [CACCUU]
(6R,S)-folinic acid [1]
  normalized RNA/DNA level without ligand (log10): 2.027 ± 0.0059
(6R,S)-folinic acid [2]
  normalized RNA/DNA level with ligand (log10): 2.01 ± 0.025

## GCUGUCACCGGUGCUUGGUACGUUAUAUUCAGCCGGUCUGAUGAGUCUCACCUGAGACGAAACAGC [CACCUG]
(6R,S)-folinic acid [1]
  normalized RNA/DNA level without ligand (log10): 2.04 ± 0.023
(6R,S)-folinic acid [2]
  normalized RNA/DNA level with ligand (log10): 2.02 ± 0.022

## GCUGUCACCGGUGCUUGGUACGUUAUAUUCAGCCGGUCUGAUGAGUCUGACGACAGACGAAACAGC [GACGAC]
(6R,S)-folinic acid [1]
  normalized RNA/DNA level without ligand (log10): 1.956 ± 0.004
(6R,S)-folinic acid [2]
  normalized RNA/DNA level with ligand (log10): 2.009 ± 0.018

## GCUGUCACCGGUGCUUGGUACGUUAUAUUCAGCCGGUCUGAUGAGUCUCACGACAGACGAAACAGC [CACGAC]
(6R,S)-folinic acid [1]
  normalized RNA/DNA level without ligand (log10): 2.02 ± 0.023
(6R,S)-folinic acid [2]
  normalized RNA/DNA level with ligand (log10): 2.02 ± 0.032

## GCUGUCACCGGUGCUUGGUACGUUAUAUUCAGCCGGUCUGAUGAGUCUCACGAGAGACGAAACAGC [CACGAG]
(6R,S)-folinic acid [1]
  normalized RNA/DNA level without ligand (log10): 1.917 ± 0.0095
(6R,S)-folinic acid [2]
  normalized RNA/DNA level with ligand (log10): 2.003 ± 0.007

## GCUGUCACCGGUGCUUGGUACGUUAUAUUCAGCCGGUCUGAUGAGUCUCACGAAAGACGAAACAGC [CACGAA]
(6R,S)-folinic acid [1]
  normalized RNA/DNA level without ligand (log10): 1.956 ± 0.0025
(6R,S)-folinic acid [2]
  normalized RNA/DNA level with ligand (log10): 1.94 ± 0.039

## GCUGUCACCGGUGCUUGGUACGUUAUAUUCAGCCGGUCUGAUGAGUCUUACGAAAGACGAAACAGC [UACGAA]
(6R,S)-folinic acid [1]
  normalized RNA/DNA level without ligand (log10): 1.913 ± 0.0081
(6R,S)-folinic acid [2]
  normalized RNA/DNA level with ligand (log10): 1.99 ± 0.03

## GCUGUCACCGGUGCUUGGUACGUUAUAUUCAGCCGGUCUGAUGAGUCUAACCUGAGACGAAACAGC [AACCUG]
(6R,S)-folinic acid [1]
  normalized RNA/DNA level without ligand (log10): 1.972 ± 0.0045
(6R,S)-folinic acid [2]
  normalized RNA/DNA level with ligand (log10): 2.02 ± 0.039

## GCUGUCACCGGUGCUUGGUACGUUAUAUUCAGCCGGUCUGAUGAGUCUGACGCAAGACGAAACAGC [GACGCA]
(6R,S)-folinic acid [1]
  normalized RNA/DNA level without ligand (log10): 2.005 ± 0.0025
(6R,S)-folinic acid [2]
  normalized RNA/DNA level with ligand (log10): 2.01 ± 0.045

## GCUGUCACCGGUGCUUGGUACGUUAUAUUCAGCCGGUCUGAUGAGUCUGACGCGAGACGAAACAGC [GACGCG]
(6R,S)-folinic acid [1]
  normalized RNA/DNA level without ligand (log10): 1.9961 ± 0.00035
(6R,S)-folinic acid [2]
  normalized RNA/DNA level with ligand (log10): 2.032 ± 0.015

## GCUGUCACCGGUGCUUGGUACGUUAUAUUCAGCCGGUCUGAUGAGUCUUACGCAAGACGAAACAGC [UACGCA]
(6R,S)-folinic acid [1]
  normalized RNA/DNA level without ligand (log10): 1.992 ± 0.013
(6R,S)-folinic acid [2]
  normalized RNA/DNA level with ligand (log10): 2.03 ± 0.037

## GCUGUCACCGGUGCUUGGUACGUUAUAUUCAGCCGGUCUGAUGAGUCUUACGCCAGACGAAACAGC [UACGCC]
(6R,S)-folinic acid [1]
  normalized RNA/DNA level without ligand (log10): 2.053 ± 0.0091
(6R,S)-folinic acid [2]
  normalized RNA/DNA level with ligand (log10): 2.07 ± 0.022

## GCUGUCACCGGUGCUUGGUACGUUAUAUUCAGCCGGUCUGAUGAGUCUUACGCGAGACGAAACAGC [UACGCG]
(6R,S)-folinic acid [1]
  normalized RNA/DNA level without ligand (log10): 1.79 ± 0.03
(6R,S)-folinic acid [2]
  normalized RNA/DNA level with ligand (log10): 1.98 ± 0.058

## GCUGUCACCGGUGCUUGGUACGUUAUAUUCAGCCGGUCUGAUGAGUCUCACGCGAGACGAAACAGC [CACGCG]
(6R,S)-folinic acid [1]
  normalized RNA/DNA level without ligand (log10): 2 ± 0.023
(6R,S)-folinic acid [2]
  normalized RNA/DNA level with ligand (log10): 1.997 ± 0.0065

## GCUGUCACCGGUGCUUGGUACGUUAUAUUCAGCCGGUCUGAUGAGUCUCACGCCAGACGAAACAGC [CACGCC]
(6R,S)-folinic acid [1]
  normalized RNA/DNA level without ligand (log10): 2.041 ± 0.011
(6R,S)-folinic acid [2]
  normalized RNA/DNA level with ligand (log10): 1.99 ± 0.047
